According to PMC11809661 (2024):

How the values were obtained:
Protein S [1] = target: T1, Protein S (Mus musculus, UniProt Q08761); experiment: ELISA plate-binding
T1 chain: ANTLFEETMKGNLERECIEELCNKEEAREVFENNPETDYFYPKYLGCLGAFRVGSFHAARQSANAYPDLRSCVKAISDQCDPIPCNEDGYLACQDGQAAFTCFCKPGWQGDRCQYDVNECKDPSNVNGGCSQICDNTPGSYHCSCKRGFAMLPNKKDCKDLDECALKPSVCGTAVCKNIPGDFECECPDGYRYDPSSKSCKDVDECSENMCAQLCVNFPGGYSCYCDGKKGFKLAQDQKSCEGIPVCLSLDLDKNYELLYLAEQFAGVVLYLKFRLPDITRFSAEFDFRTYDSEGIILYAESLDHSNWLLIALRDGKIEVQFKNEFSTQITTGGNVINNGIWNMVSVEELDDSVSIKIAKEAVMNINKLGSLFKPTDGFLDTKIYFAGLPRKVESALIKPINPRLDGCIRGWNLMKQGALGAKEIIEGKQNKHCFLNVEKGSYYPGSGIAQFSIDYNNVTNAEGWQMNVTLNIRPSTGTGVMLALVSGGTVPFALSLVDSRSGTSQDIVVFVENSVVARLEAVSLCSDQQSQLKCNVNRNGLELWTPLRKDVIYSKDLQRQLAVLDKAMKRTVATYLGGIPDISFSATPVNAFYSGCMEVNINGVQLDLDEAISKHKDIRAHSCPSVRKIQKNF

Protein S [2] = target: T2, Protein S (Homo sapiens, UniProt P07225); experiment: ELISA plate-binding
T2 chain: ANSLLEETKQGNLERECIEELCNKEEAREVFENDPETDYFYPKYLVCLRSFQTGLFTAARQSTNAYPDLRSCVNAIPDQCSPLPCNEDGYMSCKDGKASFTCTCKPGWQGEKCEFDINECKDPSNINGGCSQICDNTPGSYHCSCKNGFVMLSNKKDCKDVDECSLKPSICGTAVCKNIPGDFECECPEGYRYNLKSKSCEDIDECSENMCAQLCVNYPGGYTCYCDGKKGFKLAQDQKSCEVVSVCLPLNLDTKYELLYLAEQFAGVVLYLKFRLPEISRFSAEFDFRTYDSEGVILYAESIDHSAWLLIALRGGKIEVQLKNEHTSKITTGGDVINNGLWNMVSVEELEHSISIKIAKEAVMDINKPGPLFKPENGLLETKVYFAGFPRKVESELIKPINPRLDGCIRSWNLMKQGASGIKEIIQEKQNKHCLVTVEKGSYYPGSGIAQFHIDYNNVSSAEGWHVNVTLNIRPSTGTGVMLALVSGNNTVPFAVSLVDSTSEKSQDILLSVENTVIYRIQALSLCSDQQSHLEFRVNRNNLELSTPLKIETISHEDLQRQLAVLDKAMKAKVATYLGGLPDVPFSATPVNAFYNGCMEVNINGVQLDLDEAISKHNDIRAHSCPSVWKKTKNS

- Kd (Protein S [1]): 0.21 nM
- Kd (Protein S [2]): 0.86 nM
B1: C4BPβ 1-119 (protein)
chain: MFFWCACCLMVAWRVSASDAEHCPELPPVDNSIFVAKEVEGQILGTYVCIKGYHLVGKKTLFCNASKEWDNTTTECRLGHCPDPVLVNGEFSSSGPVNVSDKITFMCNDHYILKGSNRS
